Values of other authors, collected in PMC4586518, “Melanin production through novel processing of proopiomelanocortin in the extracellular compartment of the auricular skin of C57BL/6 mice after UV-irradiation” (Scientific Reports, 2015).

Key:
MC-1R [1] = test system: MC-1R; design: method as in 2 sources, ref 23 = [23]; PMID 17317724; doi:10.1096/fj.06-7398com; Rousseau K. et al. Proopiomelanocortin (POMC), the ACTH/melanocortin precursor, is secreted by human epidermal keratinocytes and melanocytes and stimulates melanogenesis . FASEB J 21 , 1844 – 1856 ( 2 ||| ref 34 = [34]; PMID 1556905; doi:10.1016/0024-3205(92)90347-r; Slominski. A. et al. Melanotropic activity of gamma MSH peptides in melanoma cells . Life Sci , 50 , 1103 – 1108 ( 1992 ). 1556905 10.1016/0024-3205(92)90347-r; details: MC-1R
Excerpt: To clarify the mechanism of melanin production after UV-irradiation, we assessed the expression of POMC and POMC-derived peptides after UV-irradiation to the skin of the murine auricle.

MC-1R [2] = test system: MC-1R
Excerpt: Melanin plays an important role in protecting skin after UV-irradiation. α-MSH is a major catalyst for melanogenesis in the skin following UV-irradiation. α-MSH-LI and ACTH-LI may be present in culture media of normal keratinocytes, fibroblasts, melanocytes, and their cell extracts. Although POMC and POMC-derived peptides such as ACTH and α-MSH are released from the intermedia of the pituitary, it is unlikely that pituitary secretions contribute to local pigmentation. In the present report, POMC-related peptides were detected in the UV-irradiated auricle ... || Structure-activity analyses of α-MSH have reported information on the essential sequence required for MC-1R binding and melanin production. […] However, Ac-His-Phe-Arg-Trp-NH2 had 400,000-fold less activity (EC50 20 μM) than α-MSH in a frog skin bioassay[31] and approximately 7,000-fold less activity (EC50 1 μM) in a lizard skin bioassay. Furthermore, the N-terminal region of α-MSH is ...

B1: proopiomelanocortin (protein, UniProt P01189 1-267, looked up)
chain: MPRSCCSRSGALLLALLLQASMEVRGWCLESSQCQDLTTESNLLECIRACKPDLSAETPMFPGNGDEQPLTENPRKYVMGHFRWDRFGRRNSSSSGSSGAGQKREDVSAGEDCGPLPEGGPEPRSDGAKPGPREGKRSYSMEHFRWGKPVGKKRRPVKVYPNGAEDESAEAFPLEFKRELTGQRLREGDGPDGPADDGAGAQADLEHSLLVAAEKKDEGPYRMEHFRWGSPPKDKRYGGFMTSEKSQTPLVTLFKNAIIKNAYKKGE
modifications: full-length
notes: precursor of α-MSH and ACTH; 32 kDa
With B1 as the molecule, how does the “affinity for MC-1R” value (MC-1R [1]) read?
Its value is “markedly low”.

And the “influence on melanogenesis via MC-1R” value (MC-1R [2])?
The value was “only slightly influenced melanogenesis via MC-1R”.
